Target: T1, human recombinant tPA (human, UniProt P00750 36-562)
T1 construct: The sentence 'Human recombinant serpinE2 and tPA were purchased from R&D' is read as human for both; source: bought: R&D
Test: SDS-stable complex seen by western blot; recombinant serpinE2 and tPA bound to each other beforehand, complex immunoprecipitated with Ab11 and Protein G, western blot with a serpinE2-specific antibody; complex band above uncomplexed serpinE2
Conditions: both partners purified

T1 sequence (P00750 36-562): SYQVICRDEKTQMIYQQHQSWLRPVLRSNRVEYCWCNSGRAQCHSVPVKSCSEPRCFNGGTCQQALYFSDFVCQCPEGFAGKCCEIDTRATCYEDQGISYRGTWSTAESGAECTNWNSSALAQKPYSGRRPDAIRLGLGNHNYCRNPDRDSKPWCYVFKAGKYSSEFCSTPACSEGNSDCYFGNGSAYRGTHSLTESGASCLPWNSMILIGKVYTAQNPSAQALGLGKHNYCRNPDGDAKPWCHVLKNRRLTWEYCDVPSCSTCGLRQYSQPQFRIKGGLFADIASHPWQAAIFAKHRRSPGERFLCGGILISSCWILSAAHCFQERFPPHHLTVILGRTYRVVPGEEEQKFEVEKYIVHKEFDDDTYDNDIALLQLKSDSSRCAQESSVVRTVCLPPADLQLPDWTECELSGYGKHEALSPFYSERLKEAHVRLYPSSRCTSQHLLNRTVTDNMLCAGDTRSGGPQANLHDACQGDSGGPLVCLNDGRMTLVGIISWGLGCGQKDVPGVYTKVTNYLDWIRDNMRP

binding result: binds
B1: human recombinant serpinE2 (natural protein, UniProt P07093 20-398, looked up)
chain: SHFNPLSLEELGSNTGIQVFNQIVKSRPHDNIVISPHGIASVLGMLQLGADGRTKKQLAMVMRYGVNGVGKILKKINKAIVSKKNKDIVTVANAVFVKNASEIEVPFVTRNKDVFQCEVRNVNFEDPASACDSINAWVKNETRDMIDNLLSPDLIDGVLTRLVLVNAVYFKGLWKSRFQPENTKKRTFVAADGKSYQVPMLAQLSVFRCGSTSAPNDLWYNFIELPYHGESISMLIALPTESSTPLSAIIPHISTKTIDSWMSIMVPKRVQVILPKFTAVAQTDLKEPLKVLGITDMFDSSKANFAKITTGSENLHVSHILQKAKIEVSEDGTKASAATTAILIARSSPPWFIVDRPFLFFIRHNPTGAVLFMGQINKP
notes: serpinE2 (PN-1, protease nexin-1), human, recombinant, bought; With tPA it forms the serpin/protease complex that is seen as a band above uncomplexed serpinE2 on the western blot; also called PN-1; purified human serpinE2; source: bought: R&D

— paper PMC5347692, “Serpin E2 promotes breast cancer metastasis by remodeling the tumor matrix and polarizing tumor associated macrophages” (Oncotarget, 2016)
